The results in this text go back to US7488592 (WASHINGTON UNIVERSITY, dated 2009).

One assay has as its target T1, FLAG-Erf2p (yeast (S. cerevisiae), UniProt Q06551 1-359).
T1 construct: Expressed in yeast RJY543 (pESC) or in E. coli XL1 Blue (pFLAG-MAC operon fusion); also called FLAG-tagged Erf2p; yeast Erf2
T1 sequence: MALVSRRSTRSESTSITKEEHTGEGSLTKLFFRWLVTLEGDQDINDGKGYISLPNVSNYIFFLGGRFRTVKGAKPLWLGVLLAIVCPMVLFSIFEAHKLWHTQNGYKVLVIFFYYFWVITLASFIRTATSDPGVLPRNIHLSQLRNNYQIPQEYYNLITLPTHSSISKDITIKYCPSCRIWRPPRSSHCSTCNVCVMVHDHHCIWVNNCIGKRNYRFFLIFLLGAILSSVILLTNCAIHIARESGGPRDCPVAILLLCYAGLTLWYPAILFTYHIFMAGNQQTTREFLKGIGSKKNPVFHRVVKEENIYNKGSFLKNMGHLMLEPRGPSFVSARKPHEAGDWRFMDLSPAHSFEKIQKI
The assay is described as follows: co-purification on GSH-agarose from yeast extracts, anti-FLAG immunoblot. As for the experimental part:
(§1) Expression of FLAG-Erf2p was determined by affinity purification on anti-FLAG antibody linked to agarose beads followed by an anti-FLAG immunoblot (bottom panel). (FIG. 6C) The Ras PAT activity of partially purified extracts of ERF2 and ERF4 wild type and mutant strains was assayed as described in Example 1.
(§2) Purification of Erf2p/Erf4p Complex—RJY543 yeast cells expressing GST-Erf4p along with FLAG-Erf2p or FLAG-Erf2p mutants (Erf2(H201A)_p, Erf2(C189S)p, Erf2(C203S) p) were solubilized in Y-PER® reagent as described above. *E. coli* cells expressing GST-Erf4p along with FLAG-Erf2p or FLAG-Erf2p mutants (Erf2(H201A)p, Erf2(C203S)p) were lysed by high pressure (25,000 p.s.i.) homogenization (Avestin) in 50 mM Tris-HCl, pH 7.4, 150 mM NaCl, 1 mM DTT, 1 mM EDTA, and 0.13 mM phenylmethylsulfonyl fluoride (Buffer A). […]
(§3) Immunoblotting—Proteins bound to the GSH-agarose beads were analyzed for the presence of both GST and FLAG peptide fusion proteins. GST fusion proteins were detected by immunoblotting with rabbit anti-GST (Molecular Probes) antibody and peroxidase-conjugated goat anti-rabbit secondary antibody (Sigma). FLAG-tagged proteins were detected on Western blots by probing with anti-FLAG® M5 monoclonal antibody (Sigma) and peroxidase-conjugated sheep anti-mouse secondary antibody (Amersham Biosciences).

The next assay has as its target T2, FLAG-Erf2(C189S)p (yeast (S. cerevisiae), UniProt Q06551 1-359).
T2 construct: Loss-of-function mutant in the DHHC domain, expressed in yeast
T2 sequence: T1 sequence with C189S
The assay is described as follows: co-purification on GSH-agarose from yeast extracts, immunoblot (FIG. 6B). On the procedure: as §1, §2, §3
A general note: Immunoblotting shows a protein as a band on a membrane.

Residue numbers refer to the chain shown, from its start.

B1: GST-Erf4p (other)
chain: MCDSHQKEEDNANTSERALFFNYHEFSYSFYEDLGSEDAKPTEHDEDHKLCITHFPNVYAARGSAEFQVTRVVRVPRRFDESRSSLETPQFSTQLPGSEPAAIVGDDGTSFVRCGRYDIGDHVFGCSSVSPLSEYLSAAELAEVVHRVNGFLLREEGEVFGWRNLSGLLLDMLTGGLWSWVLGPLLSRPVFQESLALEQYVAQLNSPGGLLHERGVRLVLPRRSGCLSLDFVVPRPK
notes: also called yeast Erf4; YOL110W; not shown: glutathione S-transferase (GST) moiety fused in frame to the N-terminus; vector pEG(KG) in yeast, pFLAG-MAC operon fusio
For the molecule B1, the binding result with FLAG-Erf2p is reported as “binds”; with FLAG-Erf2(C189S)p, “no binding”.
